Assay results from patent publication US20200230173A1 (US Dept. of Health and Human Services, published 2020).

Molecular target: T1, human TNFR2-Fc fusion protein (human, UniProt P20333 23-257)
T1 construct: not shown: Fc part
T1 sequence (looked up): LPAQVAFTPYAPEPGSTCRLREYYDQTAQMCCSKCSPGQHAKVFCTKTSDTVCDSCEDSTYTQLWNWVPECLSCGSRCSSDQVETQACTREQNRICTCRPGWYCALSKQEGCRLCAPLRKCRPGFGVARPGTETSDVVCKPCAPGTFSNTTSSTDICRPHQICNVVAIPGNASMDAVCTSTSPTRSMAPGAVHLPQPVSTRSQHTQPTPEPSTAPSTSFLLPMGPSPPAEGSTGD
Test: selection from a phage display scFv library on human TNFR2-Fc

- binding result: binds
B1: human TNFR2-specific monoclonal antibody E4 (antibody, V domains shown)
VH: QITLKESGPTLVKPTQTLTLTCTFSGFSLTTSGVGVGWIRQPPGKALEWLALIYWDDDKRYSPSLKSRLTITKDTSKNQVVLTMTNMDPVDTATYYCAHLDGSGSLDYWGQGTLVTVSS
VL: QSVLTQPPSASGTPGQRVTISCSGSTSNIGRNSVNWYSHLPGAAPKLLISGNDQRPSGVPDRFSGSKSDNTASLTVSGLQAEDEAHYYCSSSAANLGVFGGGTKLTVLG
